In a protein production outcome set (Wang et al. 2014):

Test: label from the status in PepcDB records

Sequence | protein production
MKHYSHGIDGLRSGLSPSAKPFAIGSSSSPAFSLKSEHEDSIWGDYTLDLSFLSSDDQRSGLDDDDSLSNLSRDVETNKEGLVLEEKIASSGKVLVNPNPSFSKLPEVLMKSSDVVGDAKLGLSCVSEKSSTESDLDESEEDSPCWKGMLSHKSLASGTKSMTSRRSTDDLSGFRKLNPLAPQFIPSSSKKKLETDGEKCEETSSSSLKKSLSSTFPSSSGEFDLTDPPLEDGRNDAAEKTSILTHNADEILGFVTSDSVSKTVSMLDSRNEFQPSKRLDPLAPVFVPSSAKLGPSVHEKLGDFVVNAYSTSALASSHVKSLDKGKVVTSSGEVGHSFKSQYGGHDFGSTSSYGPWIESEVGITEYAKLGSSNKSQGQRRLNPLARQFSLADAKQKPYGYGKNQAADDLSLVVNTSGLYIPARYREDHNVVDADLAQSSVNVERFLPNMSHGGSSLITPKADSNFGSTKWIAVEPNPTFSVKGNRDFKHHLPFHVVETAASSSTSDMKALPGPSPKMDVKKLLTTMHGLSELLTLAHGSESSDSPNAEELDLINSTVQNLNLYIQNNSQEHAGNQSVAQYNSYDLKLLPNKSKLSIRDHQFPTANNMTVDLDVKRKDKYSVVSRETVPGSRSYQYGATEDNGFGQVVPTNGYQQHQGVEQINQNALFYKSLWLKAEADRCLMVYETSLSNPYP | failed
MKIACVVLTYNRLSLLKRCIDSIRNQTYQEFDIYVIDNASTDGTAHWLSLQNDLTVISIHENKGPANGFYTCLQVPYDDGYDWIWMMDDDGVADKGQLEELLNKTVKNNLYFTNALVCNIDNPEKIAFGAKKTIDTQREELIKGNINPFNGTFIHRRVIEKNGNIMREMYMYGCETEYQLRAIKNGFQVATVTSAIHYHPSPKVSICHLIPYIKYCSIIDYPIDTLFYIRNKAYINYTYLGFKRSLFMITSYSLYYLFRLKIRKVLLFWKYYREGCKGVVGNKKQLEHHHHHH | not failed
MKIAVDAMGGDNAPQAIVEGVMLAKQDFPDIEFQLYGKEAEIKKYITDEKNITIIHTDEKIASDDEPVKAIRRKKTASMVLAAQAVKNGEADAIFSAGNTGALLAAGLFIVGRIKNVERPGLMSTLPVMGEPDKGFDMLDLGANADNKPEHLVQYAVLGSFYAEKVRNVQNPRVGLLNNGTEETKGSELTKKAFELLAADETINFVGNVEARELLNGVADVVVTDGFTGNAVLKSIEGTAMNMMSLLKTAILSEGVKGKMGALLLKNALHGMKDEMDYSKHGGAVLFGLKAPVIKTHGATGPDAVRYTIRQIHTMLETQVVPQLVEYYEGKAE | not failed
MKIAVVDGQGGGIGKAVVEKLRKELPEDTQIIALGTNALATTLMLKAGANEGASGENAIVFNAPKVDIIVGPIGIISANSMMGELTPLMAAAIAESPARKILIPLNRCNIEIAGVKNEPLPYYIEHAVEMVKKYVEGHIALEHHHHHH | not failed
MKIFAVVVTYNRLALLKKVIDLLKRQTRQLDSIVIVNNGSTDGTKEWLEQEKNITLINQSNSGGAGGFETGVKYAYENEADWIWMMDDDVFPNIDCLEKLLGWTSISQCIQPRRYYSDDVEVNFEQWLDPITYSKFGYWQEKSFNNGKKFCAINVGCFEGMFVSKSIVNKIGFPDKRFFIAEDDTIYGFAASFYTNVILVSDAIMVRARRSSDRSVSPMYTYYACRNFHLVYESLNLLLDKKNRFLYIKYIYQFVHQIYLSIFLYDNKMKHLISVFRGFYDCFRKKNGATYLEHHHHHH | failed
MKIFLDSAITTDIQDRLATEIIDGVTTNPTLIKKSNEDPDVVYKELYDMRVKDISIEVRGDTAQELAANGILYGRKYGEVATIKLPCTVEGIKACKKLSILGHKTNMTLVFSVSQAILCAKAGATYVSPFVGRLDQIGEDGIQLIRDISRVYCVSGVKTQILAASIRSPKQAEDAYLAGADICTLPVKVFDQMFKHTLTDDGLKQFAIDFGINF | failed
MKIGDKVRFLSEVGGGIVTGFKGKDFVLVEDADGFDIPMPIRECVVIEADDYNIKRKPAATAPKQEEPAKPAKPEMPVIQRQPEVRGGDTLNVFLAYVPEDAKAMMTTPFEAYLVNDSNYYLYYTYLSAEGKAWNNRSHGLVEPNTKLLLEEFTKDVLNEMERVAVQLIAFKDGKPAAIKPAVSVELRIDTVKFYKLHTFSASDFFEEPALIYDIVKDDVPAKQVYVSAEEIQSALLQKKFVDKPKSQPIMKPNHGQSGKNGIIEVDLHIDSLLDDTHGMSNSEILNYQLDKFREVIEANKEKREQKVVFIHGKGDGVLRKAIIDELKRKHSNYRYQDASFQEYGFGATMVTIK | not failed
MKIGFLGFGKSNRSLLKYLLNHQEAKFFVSEAKTLDGETKKFLEEHSVEYEEGGHTEKLLDCDVVYVSPGIKPDTSMIELLSSRGVKLSTELQFFLDNVDPKKVVGITGTDGKSTATALMYHVLSGRGFKTFLGGNFGTPAVEALEGEYDYYVLEMSSFQLFWSERPYLSNFLVLNISEDHLDWHSSFKEYVDSKLKPAFLQTEGDLFVYNKHIERLRNLEGVRSRKIPFWTDENFATEKELIVRGKKYTLPGNYPYQMRENILAVSVLYMEMFNELESFLELLRDFKPLPHRMEYLGQIDGRHFYNDSKATSTHAVLGALSNFDKVVLIMCGIGKKENYSLFVEKASPKLKHLIMFGEISKELAPFVGKIPHSIVENMEEAFEKAMEVSEKGDVILLSPGGASFDMYENYAKRGEHFREIFKRHGGDEV | failed
MKIIAFGASTSSTSINKALATFTANLVDGAQVQVLNINDYSVPMFSEDLEKEIGQAEGAQAFLRDLAQADAFVISFAEHNGHYPAAYKNLFDWATRINRALFGDKPAVYLSTSPGPGGAKSVLAAATASAPFFGGNVKASVSVPSFYDNFDLEQGVVTKPEIVAELKAAVAKLSA | failed
MKIIENYKGLPKSIYFLFLVQVINRLGDFVFPFLSLLLTQKLKFSMATTGTIVMIASVVGVPASFIGGKIADKSSRKLTYILGQSFAAIVILICGFINIPNLTVALLIASSFFNGFVRPTISAMVADLLPASKRQMGSSLLYLGINFGVAVGPIIAGFLFNNYLSLLFIIDALTSFIAVIIVLILIPDTKAVKHVGEDRIEEKEEKGNLLQILLKRPFVICFFGVDMIYSLAYRQCSFSMPIMMNKVFGYSGSSKYGFLMSVNALTVVALTIFVMHVTKRFRTLTNMAFSGLFYAVGFGMISIIGNSYLLFIISTVIWTMGEILGATNFGVYLANNSPRNCRARFGAVGELISSIGGAIGIFGAGKLIESYGINMIWRVIFIIVLLGAGLMLTLQYFQTKRVEQKIAHEI | failed
MKIIIIGCGKVGAYVAKQLLDSHHQVTIIERDQKRFEQVLQIFSQAEVLHGDGTSPILLEKCSVETANAVAYLTGKDEINLVGSTVAKFNYAVDRVVARVNNPKNEWLFNADMGVDSRVSQASLLASVIINEVNIESTATLLKLNDDENAIVEFVLSKGASVHGKTVKTINFPSDVVLISVHRQGQNIIPKGETVLLEGDHILAYTNSQNQEKLAQLFR | failed
MKIKAISIDIDGTITYPNRMIHEKALEAIRRAESLGIPIMLVTGNTVQFAEAASILIGTSGPVVAEDGGAISYKKKRIFLASMDEEWILWNEIRKRFPNARTSYTMPDRRAGLVIMRETINVETVREIINELNLNLVAVDSGFAIHVKKPWINKGSGIEKASEFLGIKPKEVAHVGDGENDLDAFKVVGYKVAVAQAPKILKENADYVTKKEYGEGGAEAIYHILEKFGYL | not failed
MKIKANGNEVQIEREMTIFEMLDALNVSMKEYVTVQLNGQIIPRSEYDKVTVKDGDEVEFLYFMGGGLL | failed
MKIKGTEKVPILIFLGALAIGIAFLPPENSLTYDGALYINIARSLTKSVTSFTYQGIYMMYRPPLYPYTLSIFFRVFSSNHLLIARLVSVFSFALTSVLVYLLTLEMFRDSVKGIIASLFYIFNPLAFTMAGRELVHSEFTFFYTLAIYLLYTGKVRKSNTRIYLSFIAAGLAILTRYTGLSIVLVFLTYLWLTEDWNWVRRREYLIGFALLFLTLLPWLYMGHLYYGGFFRPFKIASKVVTLDRPVSAFDFIKMVIGDMGFLLPALAVLGFFRVKKDENGWLILSWLVMGGGGILTVTHKESRFITFLSPVIAILASEGIYLLSNLTPRIRRNNIVAVILALLLLIPIGMKADNLRDRWSIVGVYDSNVVRYVSEHYDGKKILVSPYLYTIAGYYYPNAEIDMILNRKEIVEKIAKGYYDVIIHKDPNVYLNIEESGNYVLVKEFHGGRFKVYINRRSLAK | failed
MKILILGGTRFLGRAFVDEALQRGHEVTLFNRGTNKEVFPEVEQLIGDRNNDVSSLKNRKWDVVIDTCGFSPHHIRNVGEVLNDNIEHYVFISSLSVYKDWILHDIKEDYILQPEPTDDQIKAVENGEVSPYEYYGALKVLCEKEAEKYWPGRVLHVRAGLLSGMFDYTDRLPYWIQRVAKGGKVLVPGRKDRPVQIVDIKDVANWGLNMAENKNAGTFNVTGPNYDLTMEELLNTCKKVMNSDAEFVWVEESFMNEHNVQPWTEMPLWLPEIFSLEGETKPWKGGFTISIENAVKEGLTFRRIEETVTDVYEWMKSTDEWELKAGISGEREKELLERWYQ | failed
MKILLFICGEGLGHTGRCLALGKEFLAAGHEVNFGAYGYSKGLVQKTGYSAYEIPSEIKLAGEAGTFDIRKSIKETLNNLSPSGFRKILRLIEKLDPDVVLSDGYYTGILAAQKRKVPVYFIGHQFNMEEFFWKKGLFAGIAGIFVKRFYNYVFSSVDGIIVPDYPLPYSVNRKNFTISRAVNDNIFFSGPLIRCRYQEAGEKAFKRPNVLSTIGAFGYRAAVFRNVLEAAKLDPSIYYTFISGPEIDPEQFSKVPENVEFTGFTENPFPYYKGSDLVITAGGHGTIMESLAFGLPILSFPDEKHAEQENNASVLEEAGYGKRMSYLTPPEVILACIREIFEDENYSKKTRRLMELAEVLDGPAAVRKFLEEKHRGLEHHHHHH | failed
MKILRRTITGAATGLLLALPGVALAGTTLRVASEEAFATPAKVAAQSALEHVEKTLPDATGGEVSVQLYPGGALGSEKELIKALADGTVDAMVLSPGNAAGIVPEVQLFSASYLFESYDHARAVIKDDAFFEALAQIIAEKQAGFQLAGIGLTGTRNYYSRSRAVETIEDLSGVKMRVMSSPTEFKVWSELGTLPTTIPAPEIYTSLQTGVVDAAESSLPAISGSKYYEVAPYISLTQHQFNLHLFLVSDIAMSRLSEGQQAAVLQAFREAGHIEIDEAIRLSDEVLAFLRERPGVTVTEVDTAPFAQKLRAVQDEVATGLGVEPLLEIIRSHGTQG | failed
MKILSFAVLAAICLPMMPITTFAAETSATNALSQSQLFSRGDEYANVKISPTGKYLSAITSVEGKNVLLVLDAQTKKLLNAIRFPSNAQVGTYEWASSERIVLAKEYLKGWSDVPQYYGELMAVNADGSRPAYLFGFNSGEQQTGSNIKKNTAIKATAFILDPLPDDERYMLVNAIPWNNESSLNLELKQDVYRVDLFSGVRKRITGSPIGQARFMTDHEGEVRFVTGEDGQNVTKVFYRKDGDWVNTDKLNLGLSDFTPISFADNKNTIYAAGRVGTETLGVYRINLETGEKTEIIQDEVVDPSNFWINGTNKQLYAVEFENGYPSYAFVDNNDNHAKLLKDLIAALPGHQVQIVSETRNGEQLVVIAFNDRNPGDYYLFDTKKLKLEYLAAARKWLDPEQMAEVKPISFTNRDGQKIHGYLTLPYGKEAKNLPLVVNPHGGPHGIRDWWGFDPQNQLLAQNGMAVLQVNFRGSGGYGERFEQAGYQKWGSDIQHDIIDATQYVIGQGFVDKERICIAGGSFGGYSALQSAVLAPDMFKCAVGFAGVYDLELMFDEGDVARTRSGTSYLKDVLGQDKATLKAMSPSENVAKLKANLLLVHGGEDERAPIEQLESLEKALKNHNYPYQKLVMDNEGHGFYNDTHRAKYYDQMLSFLKTNLKL | failed
